Measured values from the DeepSol protein solubility set.

Assay: soluble on expression in E. coli; label from the status in PepcDB or PDB records

| Sequence | soluble on expression in E. coli |
| --- | --- |
| MSAVALPRVSGGHDEHGHLEEFRTDPIGLMQRVRDELGDVGTFQLAGKQVVLLSGSHANEFFFRAGDDDLDQAKAYPFMTPIFGEAVVFDASPERRKEMLHNAALRGEQMKGHAATIEDQVRRMIADWGEAGEIDLLDFFAELTIYTSSACLIGKKFRDQLDGRFAKLYHELERGTDPLAYVDPYLPIESFRRRDEARNGLVALVADIMNGRIANPPTDKSDRDMLDVLIAVKAETGTPRFSADEITGMFISMMFAGHHTSSGTASWTLIELMRHRDAYAAVIDELDELYGDGRSVSFHALRQIPQLENVLKETLRLHPPLIILMRVAKGEFEVQGHRIHEGDLVAASPAISNRIPEDFPDPHDFVPARYEQPRQEDLLNRWTWIPFGAGRHRCVGAAFAIMQIKAIFSVLLREYEFEMAQPPESYRNDHSKMVVQLAQPAAVRYRRRTGVHHHH | soluble |
| MAHHHHHHMSSAFLAQLPFVGSSSTLGWQHDDVARSYMEHVLHRARVLLPRRGWRIGLIKEFYPRGATLLGLNVNAGSEVCIRFRVPGKKNEFLPFHEVLCTALHEFTHCVHSRHDRAFWNLYYDLVKECEALEITMIQQGMRLYPAISSTPMSCTGTASQQSRSGREGRTAATASSARGGGRRLGNGGARGGGRGAGGGMSTGSRHVAQTVIKAGRAVSSSSSSPPSSAAFPGEGRRLGGGGFRQYDAPIGFTPTRDALRRILAGAAERRLARTPPLAATVTLGSHPLALSLHNTTFPQRDEGQSEVDDDDAPDCVPHSLSGHEDGGGWNCPRCGFRNDDNVVGSCAFCADCDDEDEGEATWRKRPRLDSDHSPLETPTIVVSLATASKTAPTQQLQQQQLECTAEEHYIVVSDEDDS | soluble |
| MTYFVVEVTDQEIRREKDKARELRRSRWWQTVISRRTCHWCGGDFPPEELTMDHVVPIVRGGKSSRGNVVPACKECNNRKKYLLPLEWEEYLEKARNGGEQLEHHHHHH | soluble |
| SGEEANDDKKPTTKFELERETELRFEVEASQSVQLELLTGMAEIFGTELTRNKKFTFDAGAKVAVFTWHGCSVQLSGRTEVAYVSKDTPMLLYLNTHTALEQMRRQAEKEEERGPRVMVVGPTDVGKSTVCRLLLNYAVRLGRRPTYVELDVGQGSVSIPGTMGALYIERPADVEEGFSIQAPLVYHFGSTTPGTNIKLYNKITSRLADVFNQRCEVNRRASVSGCVINTCGWVKGSGYQALVHAASAFEVDVVVVLDQERLYNELKRDLPHFVRTVLLPKSGGVVERSKDFRRECRDERIREYFYGFRGCFYPHAFNVKFSDVKIYKVGAPTIPDSCLPLGMSQEDNQLKLVPVTPGRDMVHHLLSVSTAEGTEENLSETSVAGFIVVTSVDLEHQVFTVLSPAPRPLPKNFLLIMDIRFMDLK | not soluble |
| GPGSMNFVPLYRSILKGIHTAKQHPYHLQDIRFILSYPLVKPVYYATKPNSELKQLEPLQGIDTPLLVRTCLEDLRRAFMSVPSKDMSVAQQFVYMRELGWLKCRLENIASESTDAILKEARVVASEVTDDDFLDDQIIVRQGRPNNKELQCVQTGNNGSEMGDCGYGVASAGAIGLRYEMFILQNVAPLPLVKEFLSSFSQNTEAAAAAATSNQKLQEFARRYVPRTVVCQNEDLTLTITVNAFDAALTRKSTEENNPFARVHRYFMIRFDLSPSDPLVLGVDVVNSYFLRLDAGSAELVEDIGYLHAADVWKLSQELRVKGSGSSTDSDDTKDNGCVDGSVSSKEHAAEGNVNCMDHNEHEHNPTSHFELSFINPSDGPTIMKGQLYYTLRTKSSASASKMNVGVISFGHILLFNDE | not soluble |
| HLEDVKFMIVGLPDVGLVGAITGMHLIRSKDMSYTVGIDHYGALPPVVIMNRGRVLHPIRIYRSGDVAALITDVPILPAAIPSFSAAVVEYSRRRGIEYIISATGVGNPKRLEQEKPSLYWLASDKKASLLASSLRMASEPEQGIIVGPYAIILKEAMKKHVHNLVLLADSFIDIPDPEAAAVIVEGINSITGLNVSVDELIKQAEEIKLRMRDLMKETKAVMARMGKEMEYRAPILYT | not soluble |
| MPTRKSKILDVALSNSVISNLNIMAPIGSSDHNTIKFTVQLLQNISVPKKMIPDFSKLDWPCCATYFENIEWGHIRTMFSQAVPTMPMPETSKPVPQYLRSFEQMVKNQFSKTIMSKTMNDFIEYIYLARKYRKKLRKYLSNLEVKLFKKKGNTLIDNDENEIVSELDKANLLASYFEAQYTNQNNTNFALDDDFVSDQPIPWVTDAEVLKVIMASKKSCSVTSDQVPFTFIKILSPLISSVLAQIFNLSMMRGQVPHAWTESIVIPLDKITNANNPTDFRPISLTSHLCRVYERCILAKIELFLIDNKFWSQNQHGFRPKKSTVTNMLESLNDWSKSIDLGEQIDIIYLDFSKAFDRLPHDLLLDKLVSLRMNKNLLIWLNEFLSNRSFRVRIGQTLSSRKLATCGVPQGAVLSPLLFGIYVNDISSILPEKVACKQFADDTKLYVSTPKTESENNLQSALDAVVDWTRGSKLTLNQSETVHVTVGKRRTDFKYHLDGYPIERKAITRDLGFLISEKLDFSEHWRKCINLAKFQLANMFNQYSTSNKKLMILLYKTFIRPRLEYGTVVSSPTKKSDEKAIESVQNAFTRRLYSRIKKRYINPTDKDYKTAMERNELFDLQTLSTRRKIIDRIQVIRMNNGKVDLKTSEFFEQQETHTRSKKKYIWSTVPIKHRVFQTFILLMVLVQFSIGLGNFARDIRNFGGAGSGNKTCDPSRDNDCDSPATVPSSTTKAPRYRNNTTESPPPTPPSSPPAPEGIYSFLQNNFIPRKINNLPVFQDVTTKGIQHVILVSSRLRTSLQTEKSRISQNSISYLIIDFLKSITLEIEALTNTSNCKPNSKDLRCPGKPLFCKFKNFDAAECKCSEPRAKVCKEDFEFDAQREYCTKSVKHPKDLRCEGELLFFKFHWNTTACHCINHQRDRVCAHDFQSDEDKKYQCNKKPTDLRCKKQKLYCKFHLDDKDCRCFESNQKACKKGVSGFYSSNDTLKFPSSIWRQFKLYFKKILQIFNRQMRGIFNVIHHRLHHSARKT | not soluble |
| MAYKKVLLAVNVYENADIVINSAVDFAKKNNTQVLKVVTVIDCVAPFAPSIVDFQHSIEQEAKEALDKLVTKISGIKVEHEVLVGNPAAEIVEYAEESNCDVIVLGSHATHGINLLLGSVANTVLHKAKCDVLTVRVNDDENADSKAHSYKRLLVPTDLENDSYVVVDKAKDIAKLYSAKIDTAFVIPNDSISLMTYETDKVETTLDKFAEKNGITGEKSVMIGGISNSLLEKAAENKNDLIVVGSHRRGAIGRFFLGSTANSILHQANVDVLVVRLK | soluble |
| SLILHAQAKHGKPGLPWLVFLHGFSGDCHEWQEVGEAFADYSRLYVDLPGHGGSAAISVDGFDDVTDLLRKTLVSYNILDFWLVGYSLGGRVAMMAACQGLAGLCGVIVEGGHPGLQNAEQRAERQRSDRQWVQRFLTEPLTAVFADWYQQPVFASLNDDQRRELVALRSNNNGATLAAMLEATSLAVQPDLRANLSARTFAFYYLCGERDSKFRALAAELAADCHVIPRAGHNAHRENPAGVIASLAQILRF | soluble |
| CYVDTNNDGAYEGDELHMGSLTVKAYLLGKEEAAREIRRFSFCFSPEPEAEAAAGPGPSERLLSRVAVLFPALRPGGFQAHYRAERGDLVAFSSDEELTMAMSYVKDDIFRIYIKEK | soluble |
| MGSDKIHHHHHHMIPTIRLHSQQLINPVFNNPKDLVSWMGGIQAQDYTMSKWAIGIRLKAGNLQTVNEALAKGDILRIHVMRPTWHYVAAEDIRWMLKLSSRRIITANDSFAKSRGQDISVDIYNKANRLLEKALAGHNHLTKQEIDNIFKEGGLETNERLSNRFLIHAEAEGLICSGADKNNKITFALLDERVPPIQELHKEEALAILARKYFRSHSPASLKDFVWWSGLSVTEARQGIAAIEQELLTDRFLAQKLYVHQSYKEEKTTDILHILPSYDEYLISYKDRTDVLNKEYQHKAFNSFGIFRPVILYNGQIVGNWNKVIQKQTTHIEMNWFKKNTKIKRELLSLAERKYLTFFSEL | not soluble |
| MSLGQSAQLRSWLQAMPKGGDLHNHLSGSVYAEDYLQWASEDGACVQLDDLSLRAPPCVAGQVPARGLSTRDVALYGRVVDALSMRNHLASPSQPTGHGQFFSTFGKFDAVVRARVADTVAAVLEQAARDRVPYVEIIANPPQMDDAAQRMQALPWHGTDDAANLRELQDALPPLVQAAQRNLADLDAQVRHVLQCDQAQPRAACQVQYRYVPYVLRVLPAPQVFGQMALAHALVAAGGSRAVAVNIVAPEDNPVAVADYARHMAMFRFFAQRYPGVPLSLHAGELTLGLVPPAQLRSHIRQAVDAGARRIGHGVDLPYEDDAQELLQRMRRDQVAVEINLTSNDVILGVTGAAHPLAMYLRAGVPVVLSTDDAGVSRADMTHEYQRAVQEQGIEYPTLKQLARNGLTYSFLPGASLWSANGKAAQACATALQRETDDAGCQAFRQSSEKARLQWQLETDLAQYERMLMEQRKVQTEGHHHHHH | not soluble |
| MSLARNVPEFGMESYRIEVGRMHGVKPANIVGAIANEAGLESRYIGRIDIRDDHSVLDLPAEMPHEILQHLKKVWVSGQQLQMRRIDTTETEGHHHHHH | soluble |
| MSLSETSRQLSGRFLHVTDFHLDTHYRKGTSEETLCHRDSGSAGRLGAEGSDCDSPQALIDETFRWIEKNLKGKIDFVLWTGDSARHDNDEKIPRTASEIIDLNKALAAKFIEVFEDSGAARGLSIPVIPTIGNNDIMPHNIFREAPNRWTRKFTEVWSEFIPEAQRHTFEEGGWFSAELIPNKLAALSLNTMYFYESNSAVDGCAMPSEPGFEHMEWLRVQLEILRQRGMKAILIGHVPPARSGSKRSWDESCWQKYTLFMNRFRDVVVGSVYGHMNVDHFMLQDSHDVDIVAASEDSSSDPGFSVQSRTDYLASLREEWDSMPSPPGGDSSDILLSDDWNLDALGKKEREGHHHHHH | soluble |
| MGSDKIHHHHHHMELTESIRLLFPPEERAQLDISAIKGDASNRQYYRVTGQGSVSVVCADPAFRATAVENYPFLIVRDLFARHGIRVPELLGMVHEQGLLRLEDCGDLMLQDEVPLLDRNRLSARYRQVIDLLVRIQSIRPDKDALTTTLPFSLSFDHEKLMFEFDFFIEHALNGYFAGRLGKPAIARLREEFINICDLLVLPKHFVLNHRDFHSRNIMLFRAEPVVIDFQDARLGLPQYDAVSLLRDSYVRLDPGMVNELKRYHFNQLVQLGLTSMGEAEYLRLFDLMAFQRNVKAIGTFCYQTTVAGNRTFEPSIAATLSYLREYIEARPELAMAGRLLKPIIPEISR | not soluble |
| MCKNPISIIIRIQHNIKVLPEILKACEQLHPLEIILTINGYIDDSIDIAQSYNCKIITLEEPSELNNCYVIGATKAKGKYLLFLDANYIIQSSLLTQFLQPLLDESADIVLNNLDDFFYQKQKPTIEMIWQQVTNHFFHRPDLHVNSLLFPPYAITKEILDAITPESLLNPILAQMKIIKNKFRISNHFKISIPQIPSFPSKQLIRYHLEAIENWVNILQDSRGNYTDNNRRRDIILELQNGEQRAIPKIITGKKFYSNTYGNKQLSIIIPVQNEEKTIESIIFEVQKLKPLEIIIIVNGSTDKTEELAKNCGATVITYKEALGIDTGRAVGAYFAKGDILLFIDGDFLIPSSDLLPFVQSVQNGTDLALNKLEHYYMYRVPYTIVTACKHVVNLACNRKDLGMGSTTAVPHAFSRKCIDTIGFDSLLSPTLSQVKTILAGLHVQNVHSIDVDKINRVRPEKHFSQEGYLSLATQQIIGDHIEAISYLIEQKRNTEYFLEHHHHHH | not soluble |
| MKVIEFHQVSKWYGQFQALKSISLTVNKGEIVVICGPSGSGKSTLIRTVNGLESIDSGEIIVLPELDERTRRSGKIGMVFQHFNLFPHLTVLENLTLAPIRTLKLSAQEAKERAYHFLQRVKITDQTHKYPIQLSGGQQQRVAIARSLCMQPEILLFDEPTSALDPETINEVLEVMVDLAQDGITMMCVTHEMGFARKVAHRVMFMDEGEILEVGSPEQLFQNPTHPRTQQFLNQILSH | not soluble |
